± gives the uncertainty stated by the source.
Assay: self-splicing fitness, log relative to wild type (ln ratio); higher = more splicing; Tetrahymena group I intron in knt gene, E. coli kanamycin selection, DiMSum; sequences stand for … in CUCUCU…GGAGGGAAAAGUUAUCAGGCAUGCACCUGGUAGCUAGUCUUUAAACCAAUAGAUUGCAUCGGUUUAAAAGGCAAGACCGUCAAAUUGCGGGAAAGGGGUCAACAGCCGUUCAGUACCAAGUCUCAGGGGAAACUUUGAGAUGGCCUUGCAAAGGGUAUGGUAAUAAGCUGACGGACAUGGUCCUAACCACGCAGCCAAGUCCUAAGUCAACAGAUCUUCUGUUGAUAUGGAUGCAGUUCACAGACUAAAUGUCGGUCGGGGAAGAUGUAUUCUUCUCAUAAGAUAUAGUCGGACCUCUCCUUAAUGGGAGCUAGCGGAUGAAGUGAUGCAACACUGGAGCCGCUGGGAACUAAUUUGUAUGCGAAAGUAUAUUGAUUAGUUUUGGAGUACUCGUGGUCG
Method in brief: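 A randomised library covering all eight P1ex-region intron nucleotides was built with the intron in the knt kanamycin-resistance gene on pET-22b(+) and held in E. coli BL21(DE3). Cells were grown overnight at 37°C or 30°C on LB agar, with or without 25 μg/mL kanamycin, plus 100 μg/mL carbenicillin, 50 μM IPTG and 0.2% rhamnose, and pooled colonies were amplicon-sequenced on an Illumina HiSeq 2500. DiMSum fitness is the error-weighted combination of wild-type-normalised replicate fold changes, kanamycin versus none.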

Sequence | self-splicing fitness (ln) (30 °C) | self-splicing fitness (ln) (37 °C)
GCGCAGCAAUAUUACGAUAG | -2.97 ± 0.16 | -0.857 ± 0.12
UUAUAGCAAUAUUACGCUCU | -2.68 ± 0.37 | -0.705 ± 0.46
UGCUAGCAAUAUUACGCUUG | -3.74 ± 0.21 | -0.96 ± 0.13
CCAUAGCAAUAUUACGGGGC | -2.41 ± 0.15 | -2.95 ± 0.29
AAGAAGCAAUAUUACGUCGC | -3.47 ± 0.19 | -2.2 ± 0.16
UUGAAGCAAUAUUACGAGUU | -3.34 ± 0.17 | -1.58 ± 0.17
CCUGAGCAAUAUUACGCGGG | -3.41 ± 0.26 | -2.22 ± 0.34
GACCAGCAAUAUUACGAGCA | -1.07 ± 0.084 | -0.284 ± 0.096
CAGAAGCAAUAUUACGCUCA | -1.61 ± 0.11 | 0.0994 ± 0.11
GGGAAGCAAUAUUACGAACA | -1.2 ± 0.13 | -0.445 ± 0.14
AGGUAGCAAUAUUACGAACU | 0.0152 ± 0.016 | 0.016 ± 0.034
UAGGAGCAAUAUUACGUGGC |  | -0.624 ± 0.36
AUUCAGCAAUAUUACGUGAA | -0.88 ± 0.065 | -0.398 ± 0.084
UGUGAGCAAUAUUACGAAGC | -2.81 ± 0.34 | -2.08 ± 0.47
UCGUAGCAAUAUUACGGCGU | -3.46 ± 0.34 | -1.6 ± 0.22
UUGGAGCAAUAUUACGUGCA |  | -1.94 ± 0.31
UAUCAGCAAUAUUACGCAUA | -0.316 ± 0.11 | 0.0108 ± 0.11
AGGCAGCAAUAUUACGUGCG | -0.971 ± 0.082 | -0.24 ± 0.11
GAAAAGCAAUAUUACGUCUC | -1.3 ± 0.073 | -0.38 ± 0.092
CCACAGCAAUAUUACGACCC | -4.02 ± 0.39 | 
UUCCAGCAAUAUUACGCAUU | -3.09 ± 0.17 | -0.682 ± 0.11
ACCCAGCAAUAUUACGAAGC | -0.907 ± 0.069 | -0.523 ± 0.072
AGUAAGCAAUAUUACGUACC | -0.632 ± 0.16 | 0.366 ± 0.21
CACGAGCAAUAUUACGAAUC | -3.87 ± 0.35 | -2.93 ± 0.25
GGUCAGCAAUAUUACGGGCG | -0.483 ± 0.088 | 0.32 ± 0.12
GUUAAGCAAUAUUACGCCUG | -0.512 ± 0.11 | -0.224 ± 0.12
UCGCAGCAAUAUUACGCUCG | -3.23 ± 0.28 | -1.61 ± 0.2

Sequence | self-splicing fitness (ln) (30 °C) | self-splicing fitness (ln) (37 °C)
GAAUAGCAAUAUUACGGUCA | -0.00851 ± 0.072 | -0.154 ± 0.077
UAGGAGCAAUAUUACGAGUA | -2.81 ± 0.24 | -1.93 ± 0.22
UAGAAGCAAUAUUACGCUCG | -1.06 ± 0.13 | -0.333 ± 0.12
UGUGAGCAAUAUUACGCUUC | -2.97 ± 0.39 | 
AAAGAGCAAUAUUACGGAAC |  | -2.8 ± 0.44
AGGGAGCAAUAUUACGUUCA | -1.31 ± 0.18 | -1.49 ± 0.19
GGAAAGCAAUAUUACGCUUC | -2.84 ± 0.3 | 
GUAAAGCAAUAUUACGCAAA | -0.784 ± 0.13 | -0.594 ± 0.16
UGAUAGCAAUAUUACGUGGG | -2.86 ± 0.17 | -0.621 ± 0.11
ACGAAGCAAUAUUACGUCUG | -0.601 ± 0.069 | -0.997 ± 0.092
UGGCAGCAAUAUUACGGCUU | -0.209 ± 0.075 | 0.316 ± 0.098
CGGGAGCAAUAUUACGGCCG | -3.09 ± 0.31 | 
GCCGAGCAAUAUUACGUUCU | -1.23 ± 0.1 | -0.97 ± 0.1
GGGCAGCAAUAUUACGCGAU | -2.41 ± 0.39 | -1.8 ± 0.28
GAACAGCAAUAUUACGGGUA | -1.54 ± 0.07 | -1.32 ± 0.076
CGUCAGCAAUAUUACGUGUC | -3.72 ± 0.17 | -2.96 ± 0.19
CCCCAGCAAUAUUACGUGUA | -3.17 ± 0.11 | -2.75 ± 0.13
CAUUAGCAAUAUUACGCAUC | -2.71 ± 0.21 | -1.6 ± 0.27
CGACAGCAAUAUUACGUGUU | -2.38 ± 0.086 | -3.04 ± 0.17
AGGUAGCAAUAUUACGCUUA | -1.2 ± 0.017 | -0.467 ± 0.034
GCGAAGCAAUAUUACGUGGC | -3.33 ± 0.39 | -2.35 ± 0.44
AAGUAGCAAUAUUACGAUAC | -3.92 ± 0.28 | -1.71 ± 0.25
UGCCAGCAAUAUUACGAGUU | -2.53 ± 0.17 | -0.56 ± 0.14
AAGAAGCAAUAUUACGGGAG | -2.62 ± 0.12 | -1.47 ± 0.11
UGCCAGCAAUAUUACGUAAC | -2.39 ± 0.18 | -2.36 ± 0.2
UAUAAGCAAUAUUACGGUCG | -0.167 ± 0.097 | -0.128 ± 0.12
CGGAAGCAAUAUUACGGGCA | -1.52 ± 0.16 | -1.6 ± 0.19

Sequence | self-splicing fitness (ln) (30 °C) | self-splicing fitness (ln) (37 °C)
GAUCAGCAAUAUUACGUAAU | -0.0684 ± 0.098 | -0.341 ± 0.13
CUUGAGCAAUAUUACGAGAA | -2.73 ± 0.4 | 
GGUGAGCAAUAUUACGUAUG | -3.26 ± 0.47 | -0.0178 ± 0.18
UGCUAGCAAUAUUACGAGAC | -3.12 ± 0.35 | -2.11 ± 0.36
UCGGAGCAAUAUUACGCAAG |  | -2.23 ± 0.43
GCCGAGCAAUAUUACGCAGC | -3.12 ± 0.29 | -2.22 ± 0.27
CCCUAGCAAUAUUACGCGUC | -3.35 ± 0.14 | -3.21 ± 0.23
ACAGAGCAAUAUUACGUGGU | -3.82 ± 0.2 | -2.37 ± 0.21
GGCAAGCAAUAUUACGAAUG | -2.14 ± 0.15 | -1.45 ± 0.16
AGAGAGCAAUAUUACGUCUC | -2.95 ± 0.43 | -3.37 ± 0.47
GGGAAGCAAUAUUACGUACG | -0.982 ± 0.15 | -0.441 ± 0.18
GAUCAGCAAUAUUACGUUCC |  | -2.85 ± 0.4
AGGUAGCAAUAUUACGUCCC | -1.02 ± 0.025 | -0.535 ± 0.042
CGCGAGCAAUAUUACGGGUA | -2.5 ± 0.23 | -2.11 ± 0.24
AUGCAGCAAUAUUACGAGGC | -1.94 ± 0.23 | -2.34 ± 0.33
CUUGAGCAAUAUUACGAUAU |  | -1.76 ± 0.39
AGGUAGCAAUAUUACGCCAC | -3.97 ± 0.058 | -2.98 ± 0.069
UGCAAGCAAUAUUACGACAA | -0.541 ± 0.088 | 0.237 ± 0.1
UCAGAGCAAUAUUACGGAUC |  | -2.15 ± 0.33
UACCAGCAAUAUUACGGUUG | -1.64 ± 0.067 | -0.791 ± 0.084
ACGUAGCAAUAUUACGAUGA | -0.81 ± 0.091 | -0.268 ± 0.11
GCCGAGCAAUAUUACGCCAA | -1.62 ± 0.43 | 
CAACAGCAAUAUUACGCGCA | -0.857 ± 0.085 | 0.0215 ± 0.087
GCCAAGCAAUAUUACGGCUA | -1.66 ± 0.17 | -1.39 ± 0.15
CUAUAGCAAUAUUACGCGUG | -1.27 ± 0.1 | -0.122 ± 0.12

Source: the supplement of paper PMC7877785
